Experimental data reported in the DeepSol protein solubility set.

Experiment: soluble on expression in E. coli; label from the status in PepcDB or PDB records

Sequence	soluble on expression in E. coli
MKLACKIYNTLRWADIYFYQRDGKGLTQTELRQLALDLRKQDDEYKQLYSQVVQQIADRYYEARQRFFEGLARFPKEKKPHKYYSLVYPQYGWKILQVREIRKGSKKNKKRLITLKLSNLGTFKVIIHRDFPLDKVKRVVVKLTRSERIYITFVVEDYEFPKLPNTGKVVAIDVGIEKLIVTSDGEYFPNLRPYEKALWKVKHLHRELSRKKFLSNNWFKAKVKLARAYEHLKNLRTDLYMKLGKWFAEHYDVVVMEDIHVKQLIGKSLRSLRRRLSDVAFSELRDLIKYQLEKYGKKLILVNPAYTSKTCARCGYVKEDLSLSDRVFVCSNCGWIADRDYNASLNILRGSGSERPLVWSSALYQYQHFGTGMAELLEHHHHHH	soluble
MKLALFDLDNTLLAGDSDFQWAQFLIEQQVLDREVYEARNIEFYEQYKAGTLDIHEFLDFQLKPLSRHPREQLNTWRSDFIERKIAPLIAPGARELIARHQAEKDLCIIITATNSFVTAPIARMLGIDHLIATEPEQKNGEFTGRVTGIPSFQAGKITRLEQWLDAHNLTWLSFLQSWFYSDSLNDLPLLKRVTHPVAVDPDATLHEHAKKSGWPIISLRQ	not soluble
MKLEASCGTATSEVPKPEKKTARDAEPSSETRPQEVEAEPRSGSGPEAEAEPLDFVVATERESEEVLAISGGIYGGLDYLPSRYHSWLRDPDRTVVLAKRNGGVIALESVNVIDAGETVLVEGLRVAPWERGKGVAGLLQRFCSQLVKRQHPGVKVARLTRDDQLGPRELKKYRLITKQGILLVRFNASALLAGLGARLAALRTSGTFSPLPTEAVSEAGGDVARLLLSPSVQRDVLPGGTIIQDWQPYRPSESNLRLLAAKGLEWRVDSRARPRVLTLCTRPFPIPHGGDGTWRYLNIDAFGSDGAQVQSQLLWHLQRQAPRLVGLNVMCQLFLEPQLWSQLADFCQVGLGLELVKGYTEQYLLEADI	soluble
MKLERVLPFARSLLQTAVKEGDYAVDATLGNGHDTCFLAEIVGDNGKVFGFDIQKEAIESSTTRLKEKELFERTVLVHDSHDTLLSILPEDAKGKVTGAIFNLGYLPGGDKHIVTKPNSTISAIEQLLEVMAPEGIIVLVIYHGHPEGQVERDAVLKFAEELDQKQAHVLRYGFINQQNNPPFIVAIEKR	not soluble
MKLERVTVKNFRSHSDTVVEFKEGINLIIGQNGSGKSSLLDAILVGLYWPLRIKDIKKDEFTKVGARDTYIDLIFEKDGTKYRITRRFLKGYSSGEIHAMKRLVGNEWKHVTEPSSKAISAFMEKLIPYNIFLNAIYIRQGQIDAILESDEAREKVVREVLNLDKFETAYKKLSELKKTINNRIKEYRDILARTE	soluble
MKLFLAEPFKSLWAGRDAFAEVEGLSGEVYRELEGRRTLRTEVDGRGYFVKIHRGIGWGEIAKNLATAKLPVLGAGKEWDAIERLHEVGVPTMTAVAYGERGSNPAAQHSFIVTEELAPTTSLEDVSLNWRTEPPEPRLKRAFIAEVARLVGMMHRAGVNHRDCYICHFLLHTDKPVTADDFRLSVIDLHRAQTRRAITPRWRNKDLAALYFSALDIGLTRRDKLRFLKDYFQLPLREILLKEAALLTWLDKKADKLYQRKVRYGDAL	not soluble
MKLGNVVIVLGKRLVNNQLSAEGISRVEALAAKIREMPMENTALVFCGGKTQGQSISEADAMYAYFQTLNTSLAKPFPTSQTLLENRSLNTFENMRNAAKVLCESGLFPLPSQATVEVILLSNVYHLERILEIQTLMDEQGLLRVIKSQCASVGLDLHISLDIQKHISVPYPHQGPQAEAFLLLDELTTYRVYLEGVKSGAFQRDLTSVRAQPLLRAKQAISQLRALPLEMDVLQQIAEMKKAIEMTAFDESVATAERALEMFHPILTALNRRLDPESIQAAALEHHHHHH	soluble
MKLIRGIHNLSQAPHGCVLTIGNFDGVHRGHRALLQGLQEEGRRRGLPVVVMIFEPQPLELFATDKAPARLTRLREKLHYLAQCGVDYVLCVKFDRRFAALTAQTFISELLVERLGVQFLAVGDDFRFGASRAGDFLLLQKAGAEYGFAVSSTQTFCEGGVRISSTAVRQALAEDNLALAESLLGHPFTISGRVVHGDELGRTIGFPTANLPLRRQVSPVKGVYAVEVTGLGDKPLPGVANIGTRPTVAGVRQQLEVHLLDVVMDLYGRHIDVILRKKIRNEQRFASLDELKAQIARDELTARKFFGLAGQV	not soluble
MKLLDHKLSLLEITDEEKSDEIILNLSRNVKKDLEDIVVANVSMENVLVMNIKVPPTLNKQNAVEYATMEISRNLGILPEQLVVAPLDIRGGEGLFFVSKVDQVKSFVTDLMKKEFPETDVVIPDIVKYLEVFEFYFGKRLKGTS	soluble
MKLNIRAQTAQNQHNNSPIVLVHGLFGSLDNLGVLARDLVNDHNIIQVDVRNHGLSPREPVMNYPAMAQDLVDTLDALQIDKATFIGHSMGGKAVMALTALAPDRIDKLVAIDIAPVDYHVRRHDEIFAAINAVSESDAQTRQQAAAIMRQHLNEEGVIQFLLKSFVDGEWRFNVPVLWDQYPHIVGWEKIPAWDHPALFIPGGNSPYVSEQYRDDLLAQFPQARAHVIAGAGHWVHAEKPDAVLRAIRRYLNDH	soluble
MKLQKQLLEAVEHKQLRPLDVQFALTVAGDEHPAVTLAAALLSHDAGEGHVCLPLSRLENNEASHPLLATCVSEIGELQNWEECLLASQAVSRGDEPTPMILCGDRLYLNRMWCNERTVARFFNEVNHAIEVDEALLAQTLDKLFPVSDEINWQKVAAAVALTRRISVISGGPGTGKTTTVAKLLAALIQMADGERCRIRLAAPTGKAAARLTESLGKALRQLPLTDEQKKRIPEDASTLHRLLGAQPGSQRLRHHAGNPLHLDVLVVDEASMIDLPMMSRLIDALPDHARVIFLGDRDQLASVEAGAVLGDICAYANAGFTAERARQLSRLTGTHVPAGTGTEAASLRDSLCLLQKSYRFGSDSGIGQLAAAINRGDKTAVKTVFQQDFTDIEKRLLQSGEDYIAMLEEALAGYGRYLDLLQARAEPDLIIQAFNEYQLLCALREGPFGVAGLNERIEQFMQQKRKIHRHPHSRWYEGRPVMIARNDSALGLFNGDIGIALDRGQGTRVWFAMPDGNIKSVQPSRLPEHETTWAMTVHKSQGSEFDHAALILPSQRTPVVTRELVYTAVTRARRRLSLYADERILSAAIATRTERRSGLAALFSSRE	soluble
MKLRASVLIGATILCLILSACSNYAKKVVKQKNHVYTPVYNELIEKYSEIPLNDKLKDTPFMVQVKLPNYKDYLLDNKQVVLTFKLVHHSKKITLIGDANKILQYKNYFQANGARSDIDFYLQPTLNQKGVVMIASNYNDNPNSKEKPQTFDVLQGSQPMLGANTKNLHGYDVSGANNKQVINEVAREKAQLEKINQYYKTLLQDKEQEYTTRKNNQREILETLSNRAGYQMRQNVISSEIFKNGNLNMQAKEEEVREKLQEERENEYLRNQIRSLLSGK	not soluble
MKLSCVIVSHNMKNYIGRCIDSVRTALADIRSLVGEAEIIVVDRGSTDGTANAARTAYADVTIVDVPFDAGWATAANKGACAATGETLLFVSPEVELLSGGLPRLLEHLETNPACAIAGGAVVSTSGALLHGPARFPGLLGKLAALTGLGSRFPRTMLDWTRYGGRNLDLPLEVDSVSFDYAVVKAAAFCKLGRFDARFHTAFADTDLCRRASRTMLPRPTVAFVPQARARAQDNFVLRDEVQAFDLHGTAVVRGRVRCEMLYVWKNYCILTSLANTTLELVGQACRYAMGLLPVIGCDKTARHSAAVLKETAQAALDTQLGSQYPTTPWLEHHHHHH	not soluble
MKLSQLGFFCAVVERGTIAAAAEQLHCVPSNITTRLRELEGQLGVALFNRERNRLLVTPEGRLLYRHATRLLALADETAALFAGDQAHGALRVGALDVALANHLPQRLARYRRESPGVELHIRPEHSLLLERLLMEGELDLIVTDGPIEHPLLASRLAFRERLLRVTPADLPAPTPEDLAGLELYVFGHTCHYRRQVDRWLAESAIQPRATLEIESYPSLFACIEAGLGFACVPESFVARRPSTRRGFHAEPVAGLDSSDIHFVWRKQQASPLIQGFIDSIGAD	not soluble
MKLTLAIPSLNLDEDEIRIPLCLHAFNKILQYGSLHRQSCTASAFYARYLWCGRLVERAAQSLNMPSEAVALATPVWQKMGMHQANVLTAEYLNVGTDEAERICRDLSAFYGDIPWRFVPVLPELWLVSLPCAYRWGAKPVLDLGGLLGADDQPDGEDALEWLRVQTEIQMWLAAHPVNHNRKKRGLPELNGLWLWDGTNGGAQGGTLFADTVWSRFHSDRRALPDNFRAYEETAAHLPDTHHILFMDDLRLTALTGDRERYAAILQQWEERWFAPIYEAVRTGKIKRLDITTDGQHGGTLTFKPADRWKFWRGAKTFDGIW	not soluble
MKLVLFDCDGTLVDSAGLIHAVMSETFADFGKPRPDISETKAIIGLTLDIAIARMLGRAHVDDEAAAMALRYKENYHPLRERFENATPLFDGIASLIDMLSKRDDVLIGAVTGKGRRGLTQILETHGFADHFIVSRTADDCPSKPHPAMVMECCHETGMVPADTIVIGDAIYDMQMAKAAGAKAIGVAWGYASVEDLWKAGADAVVNHPNDIPAYVPADITE	not soluble
MKLVNVTNSYKQLVNKQLENTDAYFVKVYSAGNTTAVYSEAAHHVEVLIMNKNRRIRPTEVKEILAKLLKRLPKEAYDPDEISIIELNHVTEVSVPLKVSLMEN	not soluble
MKLWAIYFEPEDWVGFRETRRFSFSDRVESVFPSSFPFYGAVRTALLMKNQKFDPGDVERAGDVRMFGPFVFENTPEGRKHYFPLPRNIYKTDSGYRVTPIVEIDGVYLPWKPEYKMDSKESTSGGLIELSDLELLRSNTQGVCKFDLVSAEKIFKKETHIGVAFEENRKKVKERMIYSISYYRFYDGGFFMFTDDERTVELVSKLDGVFLGMKSKWSAVEVEELNTTAFDPPDYKNVAVALITPAVFDGGGMPKDKTILGKRVLTTAGIRKQVVSGWDLRENKPKKIYHAVSPGAVYYLEGKVNGHVLNESKFTDFGFGRCIFMKYEKL	soluble
MKMKHMKPYTTMKTVLSTLAIALAFGPLHNAQACTRILYETGNQSYISGRSMDWADPSAATALWVFPKGMKRDGTVGDNPIKWSAKYGSIIVSFYDAGTADGMNEKGLVANMLYLKEAKWGDATKAGKPTLTAGAWAQYFLDNYATVEEAVTAMANPPFTIIAPSLPNGDAAALHLSISDVNGDSAIFEYIDGKLVIHHGSQYKVMTNSPTFDQQLALNTYWQQIGGSKFLPGTINAADRFVRASYALSASPKYRDNDLALASVFSQIRAVSVPLGITDPDRPNLAMTLWRTFADHTAKIYYFESAVFPAVSWLDMSKVDLTEGAAPKVVRVERGQPLAGELSAALKPAEPFKWLGAE	not soluble
MKNIATGGVLERIRRLAPPHVTAPFRTVAEWREWQLAEGQKRCEEINRQNRQLRVEKILNRSGIQPLHRKCSFANYQVQNDGQRYALSQAKSIADELVTGCTNFAFSGKPGTGKNHLAAAIGNRLLKDGQTVIVVTVADVMSALHASYDDGQSGEKFLRELCEVDLLVLDEIGIQRETKNEQVVLHQIVDRRTASMRSVGMLTNLNYEAMKTLLGERIMDRMTMNGGRWVNFNWESWRPNVGQPGIEK	soluble
